Read-outs that look alike come from different tables or passages of the source.
How the values were obtained:
[1] = biological target: T1, mouse CD3 (mouse, UniProt P22646 22-108); test: not described (data not shown)
T1 sequence (looked up): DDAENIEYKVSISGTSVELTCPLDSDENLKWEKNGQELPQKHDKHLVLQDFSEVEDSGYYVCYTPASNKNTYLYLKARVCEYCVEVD

[2] = biological target: T2, mouse Trop-2 (mouse, UniProt Q8BGV3 25-270, limits assumed); test: not described (data not shown)
T2 sequence (looked up): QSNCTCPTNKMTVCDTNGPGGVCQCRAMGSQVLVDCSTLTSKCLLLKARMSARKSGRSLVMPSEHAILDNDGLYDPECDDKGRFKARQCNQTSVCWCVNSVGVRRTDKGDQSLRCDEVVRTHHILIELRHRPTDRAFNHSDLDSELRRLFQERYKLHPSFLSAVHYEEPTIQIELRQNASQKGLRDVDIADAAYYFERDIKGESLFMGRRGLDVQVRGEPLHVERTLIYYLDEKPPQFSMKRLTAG

[3] = biological target: T3, Trop-2 (human, UniProt P09758 27-323); test: cell-based or functional assay
T3 sequence (looked up): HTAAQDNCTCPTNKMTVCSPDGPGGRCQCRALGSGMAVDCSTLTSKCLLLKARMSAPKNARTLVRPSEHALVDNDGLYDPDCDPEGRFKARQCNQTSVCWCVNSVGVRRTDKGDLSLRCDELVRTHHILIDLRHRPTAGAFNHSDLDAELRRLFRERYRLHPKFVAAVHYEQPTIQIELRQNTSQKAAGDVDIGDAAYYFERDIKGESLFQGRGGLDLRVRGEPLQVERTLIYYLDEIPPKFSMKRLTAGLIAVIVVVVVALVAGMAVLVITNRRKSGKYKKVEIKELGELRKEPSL

[4] = biological target: T3, Trop-2; test: cell-based or functional assay; remark: listed apart in the source
[5] = biological target: T3, Trop-2; test: assay not described; specificity EGP-1 per Table 11
[6] = biological target: T3, Trop-2; test: as above; remark: listed apart in the source

B1: (E1)-3s (bispecific antibody)
scFv: not shown
heavy (part 1 of 2): QVQLQQSGSELKKPGASVKVSCKASGYTFTNYGMNWVKQAPGQGLKWMGWINTYTGEPTYTDDFKGRFAFSLDTSVSTAYLQISSLKADDTAVYFCARGGFGSSYWYFDVWGQGSLVTVSS
heavy (part 2 of 2): not shown
light: DIQLTQSPSSLSASVGDRVSITCKASQDVSIAVAWYQQKPGKAPKLLIYSASYRYTGVPDRFSGSGSGTDFTLTISSLQPEDFAVYYCQQHYITPLTFGAGTKVEIK
notes: also called TROP2-targeting bsAb; anti-human Trop-2 x anti-human CD3 bispecific antibody; not shown: human CH1, hinge residues and Gly/Ser linker; human kappa constant domain
- binding result [1]: no binding
- binding result [2]: no binding
- IC50, T cell redirected killing of BxPC3, Donor 1 [3]: 1.06 pM
- IC50, T cell redirected killing of BxPC3, Donor 2 [3]: 0.56 pM
- IC50, T cell redirected killing of BxPC3, Donor 3 [3]: 0.32 pM
- IC50, T cell redirected killing of Capan-1, Donor 1 [3]: 35.6 pM
- IC50, T cell redirected killing of Capan-1, Donor 2 [3]: 248 pM
- IC50, T cell redirected killing of Capan-1, Donor 4 [3]: 8.51 pM
- IC50, T cell redirected killing of NCI-N87, Donor 1 [3]: 6.76 pM
- IC50, T cell redirected killing of NCI-N87, Donor 2 [3]: 34 pM
- EC50, T-cell lysis of NCI-N87 cells, very weak donor T cells [4]: 39 pM
- EC50, T-cell lysis of NCI-N87 cells, very weak donor T cells, with peginterferonalfa-2a [4]: 1.4 pM
- IC50, T-cell killing of BxPC3 cells [4]: 0.4 pM
- IC50, T-cell lysis of NCI-N87 cells, donor of very active T cells [4]: 0.37 pM
- IC50, T-cell lysis of NCI-N87 cells, with 0.1 nM 20*-2b [4]: 0.05 pM
- IC50, T-cell lysis of NCI-N87 cells, with 0.1 nM peginterferonalfa-2a [4]: 0.14 pM
- IC50, T-cell mediated lysis of Capan-1 cells [4]: 29 pM
- IC50, T-cell mediated lysis of NCI-N87 cells [4]: 0.85 pM

B2: C-AD2-IgG-hRS7 (antibody)
heavy (part 1 of 2): B1 heavy (part 1 of 2)
heavy (part 2 of 2): CGQIEYLAKQIVDNAIQQAGC
light: B1 light
notes: not shown: IgG heavy chain constant region and linker; kappa constant domain
- binding result [5]: binds

B3: C-DDD2-Fab-hRS7 (Fab)
heavy (part 1 of 2): B1 heavy (part 1 of 2)
heavy (part 2 of 2): not shown
light: B1 light
notes: also called CH1-DDD2-Fab-hRS7; not shown: CH1, hinge residues and linker; kappa constant domain
- binding result [6]: binds

Reference: patent publication EP3107577B1 (IBC Pharmaceuticals, Inc., dated 2024)
